# Results from US11390653B2, “Amino acid-specific binder and selectively identifying an amino acid” (priority 2018, dated 2022).
# B1: A. tumefaciens ClpS2 [Cys34 Pro35 Ser36] (protein, listed as Escherichia coli)
# chain: SDSPVDLKPKPKVKPKLERPKLYKVMLLNDDYTCPSFVTVVLKAVFRMSEDTGRRVMMTAHRFGSAVVVVCERDIAETKAKEATDLGKEAGFPLMFTTEPEE
# notes: ClpS2 variant, native residues 34-36 ProArgGlu mutated to CysProSer
# Assays:
# [1] = thermal stability by intrinsic protein fluorescence; format: physicochemical; settings: compared with wild-type and V1
# Method: The thermal stability of the variants was assessed. Each variant was loaded in 3×PBS at approximately 1 mg/mL concentration in capillary tubes and the intrinsic protein fluorescence recorded at 330 nm and 350 nm while heating the sample over a 35-95° C. at a rate of […].
# [2] = tested on: W1G2 peptide; format: binding
# Method: (§1) With regard to surface plasmon resonance (SPR), SPR data was collected by loading a streptavidin chip with the target biotinylated peptides in each of the four channels, and then flowing the protein over the chip at each concentration for 180 seconds before washing with 50 mM Tris-HCl, pH 8.0, 300 mM NaCl, 1 mM DTT, 5% glycerol buffer for 180 seconds. […] The four channels were used such that the negative control peptide (A1G2) was in channel 1, F1G2 in channel 2, W1G2 in channel 3, and Y1G2 in channel 4. The negative control peptide channel was used as a baseline for subtraction, which accommodates both any non-specific binding and refractive index change. A steady state response at each concentration was plotted and fit to calculate the KD, while the resonance units vs. time was used to calculate a koff for each mutant protein with each peptide.
# (§2) Regarding characterization of the ClpS mutant protein binding kinetics, for peptide sequencing via some recently proposed methods reagents can bind peptides affixed to a surface. Two A. tumefaciens ClpS2 protein variants (V2, described above, and V1) were expressed and purified from E. coli. […] The binding properties of each variant were analyzed using surface plasmon resonance (SPR).
# [3] = molecular target: T1, W1G2 peptide (Agrobacterium fabrum, UniProt Q8UD95, E37S/P35C/R36P); format: binding; parameters: His6 (N); TEV protease cleavage site (N); made in house; host or cells: BL21 Escherichia coli; settings: SPR
# Method: as §1, §2
# [4] = tested on: Leu NAA peptide; assay: yeast/peptide colorimetric pull-down assay; format: binding; settings: yeast-displayed protein
# Method: (§3) Incubation and wash steps were repeated.
# [5] = tested on: Tyr NAA peptide; assay: yeast/peptide colorimetric pull-down assay; format: binding; settings: yeast-displayed protein
# Method: as §3
# [6] = tested on: F1G2 peptide; assay: yeast/peptide colorimetric pull-down assay; format: binding; settings: yeast-displayed protein
# Method: as §3
# [7] = molecular target: T1, W1G2 peptide; assay: flow cytometry of yeast displaying ClpS proteins; format: binding; parameters: factor Xa cleavage site (N); expressed in transfected cells; host or cells: Saccharomyces cerevisiae EBY100, pCTCON2 library clone; settings: yeast-displayed protein
# Method: After two rounds of MACs selection, the library was sorted by flow cytometry. […] A typical reaction contained 100 μL of cells (containing approximately 10^6 cells), 10 μL of peptide at a concentration between 10 nM to 10 μM, and 25 μL of a master mix containing 2 μL of an anti-myc antibody, 4 μL of the SAPE (streptavidin, R-phycoerythrin conjugate—1 mg/mL) and 19 μL of PBS/BSA for each sample.
# Cells were washed with PBS/BSA and sorted using a FACS Aria cytometer and collected in 1 mL of SD-CAA media. The number of cells that bound the peptide improved with each round and were sorted with sequentially lower concentrations of peptide to increase the stringency of the selection. […]
# With regard to directed evolution of ClpS, random mutagenesis and screening was used to select proteins with higher affinity binding to the target NAA. In subsequent steps, specific residues were determined from initial screens with a targeted mutagenesis step. […] Using FACS, we assessed the affinity of each mutant for the N-terminal amino acid on the target peptide based on which quadrant the fluorescent signal fell into as shown in FIG. 15. […] If there is also a high fluorescence signal along the x-axis (streptavidin-PE) then the peptide is presumably bound to the protein variant, and the signal will appear in Q2. […]
# [8] = tested on: Y1G2 peptide; assay: SPR, peptide on streptavidin chip, ClpS2 variant protein in solution; format: binding
# Method: as §1, §2
# [9] = tested on: F1G2 peptide; assay: as above; format: binding; settings: for specificity between N-terminal Phe and Trp, in words: from SPR binding data
# Method: as §1, §2
# [10] = relative specificity factor, ratio of binding affinities
molecule,measurement,setting,value
B1,thermal stability,[1],not as thermally stable
same,KOFF Trp,[2]; from SPR dissociation curves,0.03 s⁻¹
same,"affinity for N-terminal Trp relative to wild-type, in words",[2]; in vitro surface binding assays / SPR,greater affinity
same,"Selectivity for Trp, Trp/Phe",[2]; [10],0.76
same,"Selectivity for Trp, Trp/Trp",[2]; [10],1.0
same,"Selectivity for Trp, Trp/Tyr",[2]; [10],0.08
same,Kd,"[2]; steady state, peptide on surface, 0 to 50 μM protein, read-out: KD Trp",2.8 ± 0.3 µM
same,decrease in KD for W1G2 peptide compared to wild-type,[3],6.6 fold
same,"dissociation rate slowed over wild-type, Trp",[3],51.3 fold
same,binding to Leu,[4],increased affinity
same,binding affinity to Tyr compared to wild-type,[5],increased binding affinity
same,affinity for F1G2 peptide compared to wild-type,[6],increased binding affinity
same,affinity for W1G2 peptide compared to wild-type,[7],improved affinity
same,KOFF Tyr,[8]; from SPR dissociation curves,0.05 s⁻¹
same,"Selectivity for Tyr, Tyr/Phe",[8]; [10],9.82
same,"Selectivity for Tyr, Tyr/Trp",[8]; [10],12.91
same,"Selectivity for Tyr, Tyr/Tyr",[8]; [10],1.0
same,Kd,"[8]; steady state, peptide on surface, 0 to 50 μM protein, read-out: KD Tyr",36.1 ± 4.4 µM
same,"dissociation rate slowed over wild-type, Phe",[9]; SPR,27.9 fold
same,"specificity between N-terminal Phe and Trp, in words",[9],more specific for Phe over Trp than the wild-type protein
same,"specificity between N-terminal Phe and Trp, in words",[9]; listed as CysProSer variant,selectively bound to Trp over Phe
same,KOFF Phe,[9]; from SPR dissociation curves,0.03 s⁻¹
same,"affinity for N-terminal Phe relative to wild-type, in words",[9]; in vitro surface binding assays,greater affinity
same,"Selectivity for Phe, Phe/Phe",[9]; [10],1.0
same,"Selectivity for Phe, Phe/Trp",[9]; [10],1.32
same,"Selectivity for Phe, Phe/Tyr",[9]; [10],0.10
same,Kd,"[9]; steady state, peptide on surface, 0 to 50 μM protein, read-out: KD Phe",3.7 ± 0.3 µM
